# Reference: PMC2952493 (Biochemistry, 2010)
# B1: recombinant His-tagged TRUSS_(1-797) (natural protein, UniProt Q9JLV2 1-797, looked up)
# chain: MAAAPAAAGAGASRGRRLAATAAAWGGWGGRPRPGNILLQLRQGQLTGRGLVRAVQFTETFLTERDKLSKWSGIPQLLLKLYATSHLHSDFVECQSILKEISPLLSMEAMAFVTEDRKFTQEATYPNTYIFDLFGGVDLLVEILMRPTISIRGQKLKISDEMSKDCLSILYNTCVCTEGVTKRLAEKNDFVIFLFTLMTSKKTFLQTATLIEDILGVKKEMIRLDEVPNLSSLVSNFDQQQLANFCRILAVTISEMDTGNDDKHTLLAKNAQQKKSLSLGPSAAEINQAALLSIPGFVERLCKLATRKVSESTGTASFLQELEEWYTWLDNALVLDALMRVANEESEHNQAPTVFPSLGTSEEGGLPHTSARAQLPQSMKIMHEIMYKLEVLYVLCVLLMGRQRNQVHRMIAEFKLIPGLNNLFDKLIWRKHSASALVLHGHNQNCDCSPDITLKIQFLRLLQSFSDHHENKYLLLNNQELNELSAISLKANIPEVEAVLNTDRSLVCDGKRGLLTRLLQVMKKEPAESSFRFWQARAVESFLRGTTSYADQMFLLKRGLLEHILYCIVDSECKSRDVLQSYFDLLGELMKFNVDAFKRFNKYINTDAKFQVFLKQINSSLVDSNMLVRCVTLSLDRFENQVDMKVAEVLSECRLLAYISQVPTQMSFLFRLINIIHVQTLTQENVSCLNTSLVILMLARRKERLPLYLRLLQRMEHSKKYPGFLLNNFHNLLRFWQQHYLHKDKDSTCLENSSCISFSYWKETVSILLNPDRQSPSALVSYIEEPYMDIDRDFTEE
# Target: the molecule itself
# Assay: SEC
protein,measurement,value
B1,stoichiometry N,3
